# Experimental data taken from PMC10786891, “Massively parallel profiling of RNA-targeting CRISPR-Cas13d”.
# T1: EsCas13d, nuclease-dead (Eubacterium siraeum, UniProt B0MS50, R295A;H300A;R849A;H854A)
# T1 sequence: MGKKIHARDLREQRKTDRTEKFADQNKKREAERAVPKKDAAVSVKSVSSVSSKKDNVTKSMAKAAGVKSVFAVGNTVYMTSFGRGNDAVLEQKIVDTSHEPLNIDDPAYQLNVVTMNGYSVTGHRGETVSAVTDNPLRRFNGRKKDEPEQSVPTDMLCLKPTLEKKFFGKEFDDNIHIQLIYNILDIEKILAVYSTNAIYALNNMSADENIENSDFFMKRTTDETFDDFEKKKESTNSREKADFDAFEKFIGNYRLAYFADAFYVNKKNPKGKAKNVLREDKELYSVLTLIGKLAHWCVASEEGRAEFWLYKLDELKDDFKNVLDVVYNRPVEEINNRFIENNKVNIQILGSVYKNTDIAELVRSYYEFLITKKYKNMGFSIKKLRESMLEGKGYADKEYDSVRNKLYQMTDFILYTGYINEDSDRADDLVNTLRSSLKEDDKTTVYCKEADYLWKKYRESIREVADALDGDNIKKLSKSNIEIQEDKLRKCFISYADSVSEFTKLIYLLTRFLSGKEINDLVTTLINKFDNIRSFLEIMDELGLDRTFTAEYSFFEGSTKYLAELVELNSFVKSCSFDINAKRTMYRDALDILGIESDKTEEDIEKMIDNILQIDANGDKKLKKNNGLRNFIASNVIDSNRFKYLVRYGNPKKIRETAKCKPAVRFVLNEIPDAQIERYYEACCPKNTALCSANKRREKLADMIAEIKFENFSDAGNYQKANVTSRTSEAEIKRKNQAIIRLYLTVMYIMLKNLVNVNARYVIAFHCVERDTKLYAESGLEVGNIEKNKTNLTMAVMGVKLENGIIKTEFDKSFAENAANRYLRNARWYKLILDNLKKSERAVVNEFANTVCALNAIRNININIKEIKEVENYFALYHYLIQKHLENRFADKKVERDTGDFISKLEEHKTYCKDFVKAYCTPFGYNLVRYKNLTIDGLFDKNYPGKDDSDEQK
# B1: target 1 MT 5'PFS GUA 3'PFS UAU (mixed)
# RNA 1: CACCCGUGCAAAAAUGCAGGGGUCUAAAACUGAGCGGAUAACCUCUCUAUGG
# RNA 2: GGGAAUGGAUCCACAUCUACGAAUUCGUACCAUAGAGAGGUUAUCCGCUCAUAUAGAUCGGAAGAGCACACGU
# B2: target 1 MT 5'PFS CUG 3'PFS ACA (mixed)
# RNA 1: CACCCGUGCAAAAAUGCAGGGGUCUAAAACUGAGCGGAUAACCUCUCUAUGG
# RNA 2: GGGAAUGGAUCCACAUCUACGAAUUCCUGCCAUAGAGAGGUUAUCCGCUCAACAAGAUCGGAAGAGCACACGU
# B3: target 1 MT 5'PFS CUG 3'PFS ACG (mixed)
# RNA 1: CACCCGUGCAAAAAUGCAGGGGUCUAAAACUGAGCGGAUAACCUCUCUAUGG
# RNA 2: GGGAAUGGAUCCACAUCUACGAAUUCCUGCCAUAGAGAGGUUAUCCGCUCAACGAGAUCGGAAGAGCACACGU
# B4: target 1 MT 5'PFS UGC 3'PFS UCA (mixed)
# RNA 1: CACCCGUGCAAAAAUGCAGGGGUCUAAAACUGAGCGGAUAACCUCUCUAUGG
# RNA 2: GGGAAUGGAUCCACAUCUACGAAUUCUGCCCAUAGAGAGGUUAUCCGCUCAUCAAGAUCGGAAGAGCACACGU
# B5: target 1 MT 5'PFS UCG 3'PFS AUA (mixed)
# RNA 1: CACCCGUGCAAAAAUGCAGGGGUCUAAAACUGAGCGGAUAACCUCUCUAUGG
# RNA 2: GGGAAUGGAUCCACAUCUACGAAUUCUCGCCAUAGAGAGGUUAUCCGCUCAAUAAGAUCGGAAGAGCACACGU
# B6: target 1 insC 3' of 18,insC 3' of 3 (mixed)
# RNA 1: CACCCGUGCAAAAAUGCAGGGGUCUAAAACUGAGCGGAUAACCUCUCUAUGG
# RNA 2: GGGAAUGGAUCCACAUCUACGAAUUCGUACCAUACGAGAGGUUAUCCGCUCCACCGAGAUCGGAAGAGCACACGU
# B7: target 1 MT 5'PFS CUA 3'PFS CGU (mixed)
# RNA 1: CACCCGUGCAAAAAUGCAGGGGUCUAAAACUGAGCGGAUAACCUCUCUAUGG
# RNA 2: GGGAAUGGAUCCACAUCUACGAAUUCCUACCAUAGAGAGGUUAUCCGCUCACGUAGAUCGGAAGAGCACACGU
# B8: target 1 MT 5'PFS GUU 3'PFS AGU (mixed)
# RNA 1: CACCCGUGCAAAAAUGCAGGGGUCUAAAACUGAGCGGAUAACCUCUCUAUGG
# RNA 2: GGGAAUGGAUCCACAUCUACGAAUUCGUUCCAUAGAGAGGUUAUCCGCUCAAGUAGAUCGGAAGAGCACACGU
# B9: target 1 MT 5'PFS UUG 3'PFS AUA (mixed)
# RNA 1: CACCCGUGCAAAAAUGCAGGGGUCUAAAACUGAGCGGAUAACCUCUCUAUGG
# RNA 2: GGGAAUGGAUCCACAUCUACGAAUUCUUGCCAUAGAGAGGUUAUCCGCUCAAUAAGAUCGGAAGAGCACACGU
# B10: target 1 insG 3' of 9,insU 3' of 9 (mixed)
# RNA 1: CACCCGUGCAAAAAUGCAGGGGUCUAAAACUGAGCGGAUAACCUCUCUAUGG
# RNA 2: GGGAAUGGAUCCACAUCUACGAAUUCGUACCAUAGAGAGGUUAGUUCCGCUCACCGAGAUCGGAAGAGCACACGU
# B11: target 1 MT 5'PFS UUG 3'PFS AUC (mixed)
# RNA 1: CACCCGUGCAAAAAUGCAGGGGUCUAAAACUGAGCGGAUAACCUCUCUAUGG
# RNA 2: GGGAAUGGAUCCACAUCUACGAAUUCUUGCCAUAGAGAGGUUAUCCGCUCAAUCAGAUCGGAAGAGCACACGU
# B12: target 1 MT 5'PFS UUA 3'PFS CAA (mixed)
# RNA 1: CACCCGUGCAAAAAUGCAGGGGUCUAAAACUGAGCGGAUAACCUCUCUAUGG
# RNA 2: GGGAAUGGAUCCACAUCUACGAAUUCUUACCAUAGAGAGGUUAUCCGCUCACAAAGAUCGGAAGAGCACACGU
# B13: target 1 MT 5'PFS UUA 3'PFS CAG (mixed)
# RNA 1: CACCCGUGCAAAAAUGCAGGGGUCUAAAACUGAGCGGAUAACCUCUCUAUGG
# RNA 2: GGGAAUGGAUCCACAUCUACGAAUUCUUACCAUAGAGAGGUUAUCCGCUCACAGAGAUCGGAAGAGCACACGU
# B14: target 1 MT 5'PFS GUU 3'PFS AGG (mixed)
# RNA 1: CACCCGUGCAAAAAUGCAGGGGUCUAAAACUGAGCGGAUAACCUCUCUAUGG
# RNA 2: GGGAAUGGAUCCACAUCUACGAAUUCGUUCCAUAGAGAGGUUAUCCGCUCAAGGAGAUCGGAAGAGCACACGU
# B15: target 1 MT 5'PFS GAG 3'PFS UGU (mixed)
# RNA 1: CACCCGUGCAAAAAUGCAGGGGUCUAAAACUGAGCGGAUAACCUCUCUAUGG
# RNA 2: GGGAAUGGAUCCACAUCUACGAAUUCGAGCCAUAGAGAGGUUAUCCGCUCAUGUAGAUCGGAAGAGCACACGU
# B16: target 1 MT 5'PFS CUA 3'PFS AAG (mixed)
# RNA 1: CACCCGUGCAAAAAUGCAGGGGUCUAAAACUGAGCGGAUAACCUCUCUAUGG
# RNA 2: GGGAAUGGAUCCACAUCUACGAAUUCCUACCAUAGAGAGGUUAUCCGCUCAAAGAGAUCGGAAGAGCACACGU
# B17: target 1 MT 5'PFS CUG 3'PFS ACC (mixed)
# RNA 1: CACCCGUGCAAAAAUGCAGGGGUCUAAAACUGAGCGGAUAACCUCUCUAUGG
# RNA 2: GGGAAUGGAUCCACAUCUACGAAUUCCUGCCAUAGAGAGGUUAUCCGCUCAACCAGAUCGGAAGAGCACACGU
# B18: target 1 MT 5'PFS UGC 3'PFS UCC (mixed)
# RNA 1: CACCCGUGCAAAAAUGCAGGGGUCUAAAACUGAGCGGAUAACCUCUCUAUGG
# RNA 2: GGGAAUGGAUCCACAUCUACGAAUUCUGCCCAUAGAGAGGUUAUCCGCUCAUCCAGAUCGGAAGAGCACACGU
# B19: target 1 MT 5'PFS GUA 3'PFS UAC (mixed)
# RNA 1: CACCCGUGCAAAAAUGCAGGGGUCUAAAACUGAGCGGAUAACCUCUCUAUGG
# RNA 2: GGGAAUGGAUCCACAUCUACGAAUUCGUACCAUAGAGAGGUUAUCCGCUCAUACAGAUCGGAAGAGCACACGU
# B20: target 1 MT 5'PFS CUA 3'PFS UGA (mixed)
# RNA 1: CACCCGUGCAAAAAUGCAGGGGUCUAAAACUGAGCGGAUAACCUCUCUAUGG
# RNA 2: GGGAAUGGAUCCACAUCUACGAAUUCCUACCAUAGAGAGGUUAUCCGCUCAUGAAGAUCGGAAGAGCACACGU
# B21: target 1 MT 5'PFS GUU 3'PFS GGG (mixed)
# RNA 1: CACCCGUGCAAAAAUGCAGGGGUCUAAAACUGAGCGGAUAACCUCUCUAUGG
# RNA 2: GGGAAUGGAUCCACAUCUACGAAUUCGUUCCAUAGAGAGGUUAUCCGCUCAGGGAGAUCGGAAGAGCACACGU
# B22: target 1 MT 5'PFS UGU 3'PFS CAU (mixed)
# RNA 1: CACCCGUGCAAAAAUGCAGGGGUCUAAAACUGAGCGGAUAACCUCUCUAUGG
# RNA 2: GGGAAUGGAUCCACAUCUACGAAUUCUGUCCAUAGAGAGGUUAUCCGCUCACAUAGAUCGGAAGAGCACACGU
# B23: target 1 MT 5'PFS GUU 3'PFS AGC (mixed)
# RNA 1: CACCCGUGCAAAAAUGCAGGGGUCUAAAACUGAGCGGAUAACCUCUCUAUGG
# RNA 2: GGGAAUGGAUCCACAUCUACGAAUUCGUUCCAUAGAGAGGUUAUCCGCUCAAGCAGAUCGGAAGAGCACACGU
# B24: target 1 MT 5'PFS GUU 3'PFS AGA (mixed)
# RNA 1: CACCCGUGCAAAAAUGCAGGGGUCUAAAACUGAGCGGAUAACCUCUCUAUGG
# RNA 2: GGGAAUGGAUCCACAUCUACGAAUUCGUUCCAUAGAGAGGUUAUCCGCUCAAGAAGAUCGGAAGAGCACACGU
# B25: target 1 MT 5'PFS GUA 3'PFS UAG (mixed)
# RNA 1: CACCCGUGCAAAAAUGCAGGGGUCUAAAACUGAGCGGAUAACCUCUCUAUGG
# RNA 2: GGGAAUGGAUCCACAUCUACGAAUUCGUACCAUAGAGAGGUUAUCCGCUCAUAGAGAUCGGAAGAGCACACGU
# B26: target 1 MT 5'PFS UUG 3'PFS AUG (mixed)
# RNA 1: CACCCGUGCAAAAAUGCAGGGGUCUAAAACUGAGCGGAUAACCUCUCUAUGG
# RNA 2: GGGAAUGGAUCCACAUCUACGAAUUCUUGCCAUAGAGAGGUUAUCCGCUCAAUGAGAUCGGAAGAGCACACGU
# B27: target 1 MT 5'PFS UGC 3'PFS UCG (mixed)
# RNA 1: CACCCGUGCAAAAAUGCAGGGGUCUAAAACUGAGCGGAUAACCUCUCUAUGG
# RNA 2: GGGAAUGGAUCCACAUCUACGAAUUCUGCCCAUAGAGAGGUUAUCCGCUCAUCGAGAUCGGAAGAGCACACGU
# B28: target 1 MT 5'PFS GUA 3'PFS UAA (mixed)
# RNA 1: CACCCGUGCAAAAAUGCAGGGGUCUAAAACUGAGCGGAUAACCUCUCUAUGG
# RNA 2: GGGAAUGGAUCCACAUCUACGAAUUCGUACCAUAGAGAGGUUAUCCGCUCAUAAAGAUCGGAAGAGCACACGU
# Target: T1, EsCas13d, nuclease-dead
# Assay: crRNA (strand 1, pre-loaded); Mg2+; 40 mM Tris-HCl pH 7.5, 150 mM NaCl, 6 mM MgCl2, 1 mM DTT, 0.1% Tween-20, 0.2 mg/ml BSA; 25 C; 10 min per concentration, then washed
# Settings: tags: His6-TwinStrep-SUMO cleaved; N-terminal SNAP kept (SNAP-Surface 488); label: 3' end held by stalled T7 RNA polymerase
row,Binder,Kd
1,B1,9.75 ± 0.7 nM
2,B2,8.25 ± 2.25 nM
3,B3,6.85 ± 1.6 nM
4,B4,11.5 ± 5.3 nM
5,B5,37.5 ± 10.5 nM
6,B6,32 ± 4 nM
7,B7,17 ± 6 nM
8,B8,21.7 ± 3.85 nM
9,B9,58.5 ± 20 nM
10,B10,17.9 ± 0.9 nM
11,B11,37.5 ± 13 nM
12,B12,49 ± 21 nM
13,B13,49.5 ± 20 nM
14,B14,66.5 ± 11.5 nM
15,B15,64.5 ± 30.5 nM
16,B16,11.4 ± 4 nM
17,B17,6.1 ± 1.45 nM
18,B18,30 ± 10.5 nM
19,B19,13.2 ± 1.25 nM
20,B20,22 ± 7.5 nM
21,B21,81 ± 29 nM
22,B22,~52 nM
23,B23,15.6 ± 3.35 nM
24,B24,27.4 ± 5.25 nM
25,B25,13.7 ± 0.9 nM
26,B26,83 ± 35 nM
27,B27,12.1 ± 2.7 nM
28,B28,13.8 ± 1.35 nM
